Reference: publication PMC7172368 (Antiviral Research, 2007)

Biological target: the molecule itself
Experiment: native gel or EMSA

B1: recombinant porcine ficolin α with C-terminal V5 and 6 x His tags (natural protein)
chain: not shown
binding result: binds
